Legend:
Experiment in all cases: cell-based or functional assay
PRKCI (PKC iota) = target: T1, PRKCI (PKC iota) (UniProt P41743 1-596, limits assumed)
T1 sequence (looked up): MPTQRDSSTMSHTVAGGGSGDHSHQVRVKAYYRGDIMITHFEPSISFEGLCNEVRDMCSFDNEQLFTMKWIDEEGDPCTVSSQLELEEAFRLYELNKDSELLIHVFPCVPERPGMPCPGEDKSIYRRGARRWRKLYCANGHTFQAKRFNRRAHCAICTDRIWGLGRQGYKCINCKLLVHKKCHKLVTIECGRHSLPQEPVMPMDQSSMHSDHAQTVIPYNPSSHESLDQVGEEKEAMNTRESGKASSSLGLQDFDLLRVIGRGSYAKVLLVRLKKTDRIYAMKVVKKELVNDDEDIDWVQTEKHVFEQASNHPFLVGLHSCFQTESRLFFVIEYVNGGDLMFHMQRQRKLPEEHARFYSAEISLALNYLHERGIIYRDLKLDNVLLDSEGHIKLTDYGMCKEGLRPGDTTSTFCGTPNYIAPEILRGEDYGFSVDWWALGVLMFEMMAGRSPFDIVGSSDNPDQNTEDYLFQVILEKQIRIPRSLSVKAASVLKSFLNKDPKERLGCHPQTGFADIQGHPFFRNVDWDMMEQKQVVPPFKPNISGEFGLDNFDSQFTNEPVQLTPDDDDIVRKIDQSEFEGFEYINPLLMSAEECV

PRKCB2 (PKC beta II) = PRKCB2 (PKC beta II) (human (printed as (h)), UniProt P05771-2 1-673)
Chain of PRKCB2 (PKC beta II) (human (printed as (h)), UniProt P05771-2 1-673) (P05771 other isoform, or with tags, fused parts or gaps limits assumed): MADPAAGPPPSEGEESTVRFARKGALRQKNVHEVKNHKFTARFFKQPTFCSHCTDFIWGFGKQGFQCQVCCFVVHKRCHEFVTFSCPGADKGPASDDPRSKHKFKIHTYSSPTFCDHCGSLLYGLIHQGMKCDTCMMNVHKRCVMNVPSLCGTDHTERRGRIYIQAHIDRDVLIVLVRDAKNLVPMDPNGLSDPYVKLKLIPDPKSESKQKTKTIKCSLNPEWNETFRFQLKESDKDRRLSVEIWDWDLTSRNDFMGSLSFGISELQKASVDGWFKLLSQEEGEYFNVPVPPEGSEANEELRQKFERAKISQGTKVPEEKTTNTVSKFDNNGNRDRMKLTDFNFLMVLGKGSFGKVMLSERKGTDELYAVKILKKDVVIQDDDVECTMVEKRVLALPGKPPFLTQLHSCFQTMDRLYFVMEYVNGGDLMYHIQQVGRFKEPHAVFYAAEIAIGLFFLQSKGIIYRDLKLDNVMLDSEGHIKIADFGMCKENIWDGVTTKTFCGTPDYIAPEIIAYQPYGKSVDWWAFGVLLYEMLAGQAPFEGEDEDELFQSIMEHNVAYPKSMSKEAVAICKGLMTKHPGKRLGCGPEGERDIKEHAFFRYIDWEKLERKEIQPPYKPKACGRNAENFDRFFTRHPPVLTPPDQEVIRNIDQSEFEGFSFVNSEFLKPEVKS

[1] = target: T2, NEK9 NIMA (never in mitosis gene a)-related kinase 9 (UniProt Q8TD19 1-979, limits assumed)
T2 sequence (looked up): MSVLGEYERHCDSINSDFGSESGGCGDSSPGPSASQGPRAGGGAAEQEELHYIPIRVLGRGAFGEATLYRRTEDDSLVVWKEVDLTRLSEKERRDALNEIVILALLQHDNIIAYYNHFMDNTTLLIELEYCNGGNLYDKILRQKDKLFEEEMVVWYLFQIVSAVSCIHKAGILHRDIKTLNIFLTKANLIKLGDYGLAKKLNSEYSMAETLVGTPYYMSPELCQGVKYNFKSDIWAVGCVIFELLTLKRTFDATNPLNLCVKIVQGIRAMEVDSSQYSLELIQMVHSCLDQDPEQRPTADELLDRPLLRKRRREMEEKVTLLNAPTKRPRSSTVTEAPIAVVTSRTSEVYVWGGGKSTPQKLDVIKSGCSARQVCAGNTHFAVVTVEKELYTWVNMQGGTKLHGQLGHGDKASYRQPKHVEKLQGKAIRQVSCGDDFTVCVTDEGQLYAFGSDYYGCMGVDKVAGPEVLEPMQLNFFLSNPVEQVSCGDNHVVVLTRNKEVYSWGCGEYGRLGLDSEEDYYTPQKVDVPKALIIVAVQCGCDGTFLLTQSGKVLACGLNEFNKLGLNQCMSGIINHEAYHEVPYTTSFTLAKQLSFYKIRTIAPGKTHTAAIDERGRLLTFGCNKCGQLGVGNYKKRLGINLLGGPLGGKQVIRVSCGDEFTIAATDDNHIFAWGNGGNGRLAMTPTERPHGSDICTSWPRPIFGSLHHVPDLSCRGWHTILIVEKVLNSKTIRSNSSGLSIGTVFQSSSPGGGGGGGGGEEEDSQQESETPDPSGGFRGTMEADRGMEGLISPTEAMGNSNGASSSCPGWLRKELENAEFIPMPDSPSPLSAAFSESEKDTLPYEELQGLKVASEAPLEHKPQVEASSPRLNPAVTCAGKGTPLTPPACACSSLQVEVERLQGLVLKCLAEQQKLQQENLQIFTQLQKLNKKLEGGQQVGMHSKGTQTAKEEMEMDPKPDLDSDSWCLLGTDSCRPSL

PIM2 = PIM2 (UniProt Q9P1W9 1-311, limits assumed)
Chain of PIM2 (Q9P1W9 whole entry): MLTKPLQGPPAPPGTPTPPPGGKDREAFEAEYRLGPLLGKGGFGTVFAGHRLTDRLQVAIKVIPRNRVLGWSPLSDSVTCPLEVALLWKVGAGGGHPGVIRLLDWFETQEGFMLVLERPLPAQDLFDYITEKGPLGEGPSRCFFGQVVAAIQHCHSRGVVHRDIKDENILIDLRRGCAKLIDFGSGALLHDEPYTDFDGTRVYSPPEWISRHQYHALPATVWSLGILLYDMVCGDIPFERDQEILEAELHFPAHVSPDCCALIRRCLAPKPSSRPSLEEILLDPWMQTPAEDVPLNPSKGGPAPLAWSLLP

PIM1 Pim-1 oncogene = PIM1 Pim-1 oncogene (UniProt P11309 1-313, limits assumed)
Chain of PIM1 Pim-1 oncogene (P11309 whole entry): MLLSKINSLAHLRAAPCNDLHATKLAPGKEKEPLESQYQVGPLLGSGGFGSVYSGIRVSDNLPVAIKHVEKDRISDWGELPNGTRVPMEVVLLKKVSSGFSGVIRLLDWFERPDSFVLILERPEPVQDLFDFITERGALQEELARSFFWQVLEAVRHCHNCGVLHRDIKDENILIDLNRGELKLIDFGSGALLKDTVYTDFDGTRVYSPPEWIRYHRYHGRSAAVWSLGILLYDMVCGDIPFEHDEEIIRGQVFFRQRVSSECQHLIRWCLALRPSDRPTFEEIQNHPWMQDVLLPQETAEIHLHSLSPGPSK

[2] = target: PRKCB1 (PKC beta I) Protein kinase C, beta 1 (UniProt P05771 1-671)
Chain of PRKCB1 (PKC beta I) Protein kinase C, beta 1 (P05771 whole entry): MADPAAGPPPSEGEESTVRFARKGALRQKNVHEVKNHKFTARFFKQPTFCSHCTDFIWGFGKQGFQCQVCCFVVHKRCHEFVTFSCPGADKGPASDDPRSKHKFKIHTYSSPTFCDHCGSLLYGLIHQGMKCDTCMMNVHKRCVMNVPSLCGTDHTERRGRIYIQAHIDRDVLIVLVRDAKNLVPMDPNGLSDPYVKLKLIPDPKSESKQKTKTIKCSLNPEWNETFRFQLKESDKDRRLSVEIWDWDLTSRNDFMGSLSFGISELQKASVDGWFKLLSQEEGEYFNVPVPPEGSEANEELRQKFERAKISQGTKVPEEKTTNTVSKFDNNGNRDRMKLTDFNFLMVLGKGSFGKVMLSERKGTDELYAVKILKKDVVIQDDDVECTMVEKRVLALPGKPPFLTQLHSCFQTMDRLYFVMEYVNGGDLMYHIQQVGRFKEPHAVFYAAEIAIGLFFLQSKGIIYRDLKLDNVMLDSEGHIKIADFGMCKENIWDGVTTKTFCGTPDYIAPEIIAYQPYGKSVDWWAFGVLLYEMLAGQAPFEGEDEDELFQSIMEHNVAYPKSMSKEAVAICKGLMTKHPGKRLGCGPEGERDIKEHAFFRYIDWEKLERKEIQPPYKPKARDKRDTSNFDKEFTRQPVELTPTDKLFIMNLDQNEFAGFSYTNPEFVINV

MAP4K5 (KHS1) = MAP4K5 (KHS1) (UniProt Q9Y4K4 1-846, limits assumed)
Chain of MAP4K5 (KHS1) (Q9Y4K4 whole entry): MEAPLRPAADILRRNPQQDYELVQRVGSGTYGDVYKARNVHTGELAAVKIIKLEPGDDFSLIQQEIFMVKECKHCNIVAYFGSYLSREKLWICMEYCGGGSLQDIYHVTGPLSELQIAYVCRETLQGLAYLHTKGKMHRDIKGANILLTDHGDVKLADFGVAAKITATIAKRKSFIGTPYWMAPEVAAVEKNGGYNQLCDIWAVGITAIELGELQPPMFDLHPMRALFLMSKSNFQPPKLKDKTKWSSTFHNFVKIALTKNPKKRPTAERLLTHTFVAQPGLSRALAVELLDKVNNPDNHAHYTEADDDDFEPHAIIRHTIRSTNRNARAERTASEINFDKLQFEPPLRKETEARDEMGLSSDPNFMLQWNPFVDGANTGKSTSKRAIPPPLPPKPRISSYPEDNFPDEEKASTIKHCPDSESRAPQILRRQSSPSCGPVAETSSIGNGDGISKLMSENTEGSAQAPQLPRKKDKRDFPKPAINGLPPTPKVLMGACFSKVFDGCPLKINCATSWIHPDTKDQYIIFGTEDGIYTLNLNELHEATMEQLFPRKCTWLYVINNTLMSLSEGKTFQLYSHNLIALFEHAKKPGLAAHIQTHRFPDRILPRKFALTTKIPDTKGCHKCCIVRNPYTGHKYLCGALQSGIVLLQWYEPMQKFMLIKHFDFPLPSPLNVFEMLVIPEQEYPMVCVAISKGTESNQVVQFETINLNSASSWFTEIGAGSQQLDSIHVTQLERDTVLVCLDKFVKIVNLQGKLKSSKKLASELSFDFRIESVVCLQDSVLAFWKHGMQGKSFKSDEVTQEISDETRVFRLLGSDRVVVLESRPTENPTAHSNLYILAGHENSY

[3] = target: MAPK14 (p38 alpha) Mitogen-activated protein kinase 14 (UniProt Q16539 1-360)
Chain of MAPK14 (p38 alpha) Mitogen-activated protein kinase 14 (Q16539 whole entry): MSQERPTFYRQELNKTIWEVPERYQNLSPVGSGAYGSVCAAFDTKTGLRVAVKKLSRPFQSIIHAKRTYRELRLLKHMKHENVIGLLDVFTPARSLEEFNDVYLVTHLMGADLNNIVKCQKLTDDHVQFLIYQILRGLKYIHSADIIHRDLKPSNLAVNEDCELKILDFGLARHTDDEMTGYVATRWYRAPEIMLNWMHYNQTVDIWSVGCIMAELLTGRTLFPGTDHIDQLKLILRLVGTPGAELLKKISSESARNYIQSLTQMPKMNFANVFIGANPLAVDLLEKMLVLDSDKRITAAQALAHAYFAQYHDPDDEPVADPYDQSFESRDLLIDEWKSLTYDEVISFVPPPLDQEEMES

SRPK2 = SRPK2 (UniProt P78362 1-688, limits assumed)
Chain of SRPK2 (P78362 whole entry): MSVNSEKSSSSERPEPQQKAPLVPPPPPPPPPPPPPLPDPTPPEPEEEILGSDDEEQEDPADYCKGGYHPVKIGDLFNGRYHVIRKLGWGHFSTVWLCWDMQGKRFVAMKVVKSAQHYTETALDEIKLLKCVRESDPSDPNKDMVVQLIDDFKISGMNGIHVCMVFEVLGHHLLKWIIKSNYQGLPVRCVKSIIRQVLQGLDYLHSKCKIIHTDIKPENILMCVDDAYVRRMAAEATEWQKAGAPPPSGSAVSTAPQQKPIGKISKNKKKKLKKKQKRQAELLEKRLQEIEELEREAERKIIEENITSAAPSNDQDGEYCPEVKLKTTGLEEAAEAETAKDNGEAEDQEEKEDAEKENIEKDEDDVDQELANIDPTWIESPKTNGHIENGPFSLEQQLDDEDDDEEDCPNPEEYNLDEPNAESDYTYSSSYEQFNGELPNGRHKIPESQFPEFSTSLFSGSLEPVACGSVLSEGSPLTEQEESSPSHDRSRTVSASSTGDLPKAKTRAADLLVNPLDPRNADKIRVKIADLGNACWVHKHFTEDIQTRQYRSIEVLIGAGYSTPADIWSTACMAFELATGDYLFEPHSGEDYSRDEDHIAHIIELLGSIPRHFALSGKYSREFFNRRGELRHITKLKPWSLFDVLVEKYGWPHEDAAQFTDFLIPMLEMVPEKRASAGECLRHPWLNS

ADRBK2 (GRK3) = target: T3, ADRBK2 (GRK3) (UniProt P35626 1-688, limits assumed)
T3 sequence (looked up): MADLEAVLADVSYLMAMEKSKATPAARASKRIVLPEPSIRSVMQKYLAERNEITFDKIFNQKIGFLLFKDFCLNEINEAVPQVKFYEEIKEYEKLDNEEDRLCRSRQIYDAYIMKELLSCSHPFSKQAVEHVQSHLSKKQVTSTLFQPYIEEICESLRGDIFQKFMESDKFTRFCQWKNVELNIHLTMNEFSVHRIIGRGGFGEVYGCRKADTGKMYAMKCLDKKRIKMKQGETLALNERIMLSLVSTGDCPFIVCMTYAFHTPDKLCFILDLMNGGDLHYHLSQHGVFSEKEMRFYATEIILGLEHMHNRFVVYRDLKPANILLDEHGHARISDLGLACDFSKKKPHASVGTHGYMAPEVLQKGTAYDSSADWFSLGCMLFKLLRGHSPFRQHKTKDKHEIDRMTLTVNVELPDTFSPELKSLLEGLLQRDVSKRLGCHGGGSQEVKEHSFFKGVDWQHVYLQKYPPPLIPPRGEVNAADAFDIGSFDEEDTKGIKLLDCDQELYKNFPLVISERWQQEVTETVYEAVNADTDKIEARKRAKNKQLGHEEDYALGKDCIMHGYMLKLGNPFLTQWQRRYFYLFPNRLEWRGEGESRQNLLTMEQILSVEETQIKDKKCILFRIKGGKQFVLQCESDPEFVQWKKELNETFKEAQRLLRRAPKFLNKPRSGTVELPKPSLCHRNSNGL

PHKG1 = PHKG1 (UniProt Q16816 1-387, limits assumed)
Chain of PHKG1 (Q16816 whole entry): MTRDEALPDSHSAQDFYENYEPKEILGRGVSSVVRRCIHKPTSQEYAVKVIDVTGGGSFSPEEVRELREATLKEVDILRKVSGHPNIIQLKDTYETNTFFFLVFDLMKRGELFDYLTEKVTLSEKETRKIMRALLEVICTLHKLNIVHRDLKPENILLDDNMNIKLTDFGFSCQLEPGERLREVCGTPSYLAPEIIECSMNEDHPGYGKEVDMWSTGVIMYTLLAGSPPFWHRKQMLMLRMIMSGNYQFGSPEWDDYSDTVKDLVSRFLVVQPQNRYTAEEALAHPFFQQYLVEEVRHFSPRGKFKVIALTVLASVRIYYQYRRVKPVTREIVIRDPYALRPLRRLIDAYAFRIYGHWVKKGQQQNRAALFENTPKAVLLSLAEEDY
Further: test concentration or dose not given here.

In the case of SGRPPMIVWFNRPFLIAVSHTHGQTILFMAKVINPVGA [D3 peptide], the “% Inhibition mean” value (PRKCI (PKC iota)) is reported as 48.9%, the “% Inhibition mean” value (PRKCB2 (PKC beta II)) is reported as 61.6% and the “% Inhibition mean” value [1] is reported as 108%. The “% Inhibition mean” value (PIM2) was 89.9%, the “% Inhibition mean” value (PIM1 Pim-1 oncogene) was 89% and the “% Inhibition mean” value [2] was 88%. The “% Inhibition mean” value (MAP4K5 (KHS1)) was 86.3%, the “% Inhibition mean” value [3] was 83% and the “% Inhibition mean” value (SRPK2) was 79.2%. For the same binder, the “% Inhibition mean” value (ADRBK2 (GRK3)) was 66.7% and the “% Inhibition mean” value (PHKG1) was 54.8%.

Source: patent US20100184658A1 (published 2010)
